In the RNAGym collection of RNA variant scans (doi:10.1073/pnas.2313332121):
Variants at the floor of the assay were thinned out.

B1: TPR 5TU (parent)
chain: GGAUCUUCUCGAUCUAACAAAAAAGACAAAUCUGCCACAAAGCUUGAGAGCAUCUUCGGAUGCAGAGGCGGCAGCCUUCGGUGGCGCGAUAGCGCCAACGUUCUCAACUAUGACACGCAAAACGCGUGCUCCGUUGAAUGGAGUUUAUCAUG

Variants of: B1
Test: polymerase ribozyme fitness, log enrichment relative to wild type (log ratio); higher = more active; in vitro selection for triplet polymerase activity
Summary of the method: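 Only genotypes with ≥10 input reads and ≥1 read per output were kept after Illumina sequencing of input and output libraries. These libraries were PCR-built, transcribed mutants of each subunit of a heterodimeric triplet polymerase ribozyme, each put through one triplicate in vitro selection round with frozen incubation at −7 °C, gel excision of extended constructs, streptavidin-bead capture and RT-PCR. Fitness is a logarithmic ratio of genotype enrichment to wild-type enrichment, from inverse-variance-weighted replicate averages, with the logarithm in base 2.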

| Variant | polymerase ribozyme fitness (log ratio) |
| --- | --- |
| GGAUCUUCUCGAUCUAACAAAAAAGACAAAUCUGUCACAAAGCUUGAGAGCAUCUUCGGAUGCAGAGGCGGCAGCCUUAGUUGGCGCGAUAGAGCCAACGUACUCAACUAUGACACGCAAAACGCGAGCUCCGUUGAAUGGAGUUUAUCAUG [C35U C79A G81U C93A U102A U127A] | ≤ -4.2 |
| GGAUCUUCUCGAUCUAACAAAAAAGACAAAUCUGUCACAAAGCUUGAGAGCAUCUUCGGAUGCAGAGGCGGCAGCCUUCGGUGGAGCGAUAGCGCCAACGUUCUCAACUAUGACACGCAAAACGCGUGCUCCGUUGAAUGGAGUUUAUCAUG [C35U C85A] | -1.42 |
| GGAUCUUCUCGAUCUAACAAAAAAGACAAAUCUGUCACAAAGCUUGAGAGCAUCUUCGGAUGCAGAGGCGGCAGCCUUCGGUGGUGCGAUAGCGCCAACGUUCUCAACUAUGACACGCAAAACGCGUGCUCCGUUGAAUGGAGUUUAUCAUG [C35U C85U] | -0.375 |
| GGAUCUUCUCGAUCUAACAAAAAAGACAAAUCUGUCACAAAGCUUUAGAGCAUCUUCGGAUGCAGAGGCGGCAGCCUUCGGUGGCGCGAUAGCGCUAACGUUCUCAACUAUGACACGCAAAACGCGUGCUCCGUUGAAUGGAGUUUAUCAUG [C35U G46U C96U] | -1.23 |
| GGAUCUUCUCGAUCUAACAAAAAAGACAAAUCUGUCACAAAGCUUGAGAGCAUCUUCGGAUGCAGAGGCGGCAGCCUUCGGUAGCGCGAUAGCGCCAACGUUCUCAACUAUGACACGCAAAACGCGUGCUCCGUUGAAUGGAGUUUAUCAUG [C35U G83A] | -0.173 |
| GGAUCUUCUCGAUCUAACAAAAAAGACAAAUCUGUCACAAAGCUUGAGAGCAUCUUCGGAUGCAGAGGCGGCAGCCUUCGGUGGCGCGAUAGCGGCAACGUUCUCAACUAUGACACGCAAAACGCGUGCUCCGUUGAAUGGAGUUUAUCAUG [C35U C95G] | -1.22 |
| GGAUCUUCUCGAUCUAACAAAAAAGACAAAUCUGUCACAAAGCUUGAGAGCAUCUUCGGAUGCAGAGGCGGCAGCCUUCGGUGGCGCGAUAGCGUGAACGUUCUCAACUAUGACACGCAAAACGCGUGCUCCGUUGAAUGGAGUUUAUCAUG [C35U C95U C96G] | -1.52 |
| GGAUCUUCUCGAUCUAACAAAAAAGACAAAUCUGUCACAAAGCUUGAGAGCAUCUUCGGAUGCAGAGGCGGCAGCCUUCGGUGGCUCGAUAGCGCCAACGUUCUCAACUAUGACACGCAAAACGCGUGCUCCGUUGAAUGGAGUUUAUCAUG [C35U G86U] | -1.43 |
| GGAUCUUCUCGAUCUAACAAAAAAGACAAAUCUGUCACAAAGCUUGAGACCAUCUUCGGAUGCAGAGGCGGCAGCAUUGGGUGGCGGGAUAGCGCCAACGUUCUCAACUAUGACACGCAAAACGCGUGCUCCGUUGAAUGGCGUUUAUCAUU [C35U G50C C76A C79G C87G A142C G152U] | ≤ -4.2 |
| GGAUCUUCUCGAUCUAACAAAAAAGACAAAUCUGUCACAAAGCUUGAGAGCAUCUUCGGAUGCAGAGGCGGCAGCCUUCGGUGGCGCGAUAGCGCCAACGUUCUCAACUAUGACACGUAAAACGCGUGCUCCGUUGAAUGGAGUUUAUCAUG [C35U C118U] | -0.573 |
| GGAUCUUCUCGAUCUAACAAAAAAGACAAAUCUGUCACAAAGCUUGAGAGCAUCUUCGGAUGCAGAGGCGGCAGCUUUCGGUGGCGCGAUAGCGCCAAUGUUCUCAACUAUGACACGCAAAACGCGUGCUCCGUUGAAUGGAGUUUAUCAUG [C35U C76U C99U] | -1.5 |
| GGAUCUUCUCGAUCUAACAAAAAAGACAAAUCUGUCACAAAGCUUCAGAGCAUCUUCGGAUGCAGAGGCGGUAUCCUUCGGUGGCGCGAUAGCGCUAACGUUCUCAGCUAUGACACGCAAAACGCGUGCUCCGUUGAAUGGAGUUUAUCAUG [C35U G46C C72U G74U C96U A107G] | ≤ -4.2 |
| GGAUCUUCUCGAUCUAACAAAAAAGACAAAUCUGUCACAAAGCUUGAGAACAUCUUCGGAUGCAGAGGCGGCAGCCUUCGGUGGCGGGAUAGCGCCAACGUUCUCAACUAUGACACGCAAAACACGUGCUCCGUUGAAUGGAGUUUAUCAUG [C35U G50A C87G G124A] | -3.99 |
| GGAUCUUCUCGAUCUAACAAAAAAGACAAAUCUGUCACAAAGCUUGAGAUCAUCUACGGAUGCAGAGACGGCAGCCUUCGGUGGUGCGAUAGCGCCAACGUUCUCAACUAUGACACGCAAAACGCGUGCUCCGUUGCAUGGAGUUUAUCAUG [C35U G50U U56A G68A C85U A137C] | ≤ -4.2 |
| GGAUCUUCUCGAUCUAACAAAAAAGACAAAUCUGUCACAAAGCUUGAGAGCAUCUUCGGAUGCAGAGGCGGCAGCCUUCGGUGGCGCGAUAGAGCCAACGUUCUCAACUAUGACACGCACAACGCAUGCUCCGUUGAAUGGAGUUUAUCUUG [C35U C93A A120C G126A A150U] | -4 |
| GGAUCUUCUCGAUCUAACAAAAAAGACAAAUCUGUCACAAAGCUUGAGAGCAUCUUCGGAUGCAGAGGCGGCAGCCUUCGGUGGCGCGAUAGCGUCAACGUUCUCACCAAUGACUCGCAAAACGCGUGCUCCGUUGAAUGGAGUUUAUCAUG [C35U C95U A107C U109A A115U] | ≤ -4.2 |
| GGAUCUUCUCGAUCUAACAAAAAAGACAAAUCUGUCACAAAGCUUGAGAGCAUCUUCGGAUGCAGAGGCGGCAGCCUUCGGUGGCGCGAUAGGGCCAACGUUCUCAACUAUGACACGCAAAACGCGUGCUCCGUUGAAUGAAGUUUAUCAUG [C35U C93G G141A] | -3.56 |
| GGAUCUUCUCGAUCUAACAAAAAAGACAAAUCUGUCACAAAACUUGAGAGCAUCUUCGGAUGCACAGGCGGCAGCCGUCGGUGGCGAGAUAGCGCCAACGGUCUCAACUAUGACACGCAAAACGCGUGCUCCGUUGAAUGGAAUUUAUCAAG [C35U G42A G65C U77G C87A U101G G143A U151A] | ≤ -4.2 |
| GGAUCUUCUCGAUCUAACAAAAAAGACAAAUCUGUCACAAAGCUUGAGAGCAUCUUCGGAUGCAGAGGCGGCAGCCUUCGGUGGCGCGAUAGCGCCAACGUUCUCAACUAUGACAAGCAAAACGCGUGCUCCGUUGAAUGGAGUUUAUCAUG [C35U C116A] | -0.104 |
